3 molecules from patent US20070196371A1 (ZymoGenetics, published 2007) can be followed below.

Test [1] has as its target T1, mouse IL-17RCx1, on transfected cells (mouse, UniProt Q8K4C2 22-698).
T1 construct: also called murine IL-17RCx1; IL-17RCx1 (mouse)
T1 sequence: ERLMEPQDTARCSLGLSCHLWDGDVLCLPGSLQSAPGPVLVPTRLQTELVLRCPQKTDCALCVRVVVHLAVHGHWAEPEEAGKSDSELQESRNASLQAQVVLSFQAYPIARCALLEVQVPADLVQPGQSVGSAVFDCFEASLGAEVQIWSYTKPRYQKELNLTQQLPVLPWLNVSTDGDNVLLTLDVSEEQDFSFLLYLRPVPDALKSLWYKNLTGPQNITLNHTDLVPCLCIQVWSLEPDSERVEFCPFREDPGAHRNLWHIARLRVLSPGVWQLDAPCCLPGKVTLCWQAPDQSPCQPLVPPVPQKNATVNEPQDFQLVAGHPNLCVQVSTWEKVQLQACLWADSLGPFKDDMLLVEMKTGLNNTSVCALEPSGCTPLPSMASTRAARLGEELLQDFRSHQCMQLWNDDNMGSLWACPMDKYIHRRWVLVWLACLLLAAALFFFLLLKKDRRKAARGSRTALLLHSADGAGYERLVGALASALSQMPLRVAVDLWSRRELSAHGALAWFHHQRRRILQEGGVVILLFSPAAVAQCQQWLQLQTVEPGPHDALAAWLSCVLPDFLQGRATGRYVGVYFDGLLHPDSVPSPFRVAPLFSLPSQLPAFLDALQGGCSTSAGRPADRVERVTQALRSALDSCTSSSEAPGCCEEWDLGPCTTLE
Briefly: FACS, biotinylated cytokine on transfected cells; (-) = no significant change in fluorescence.

Test [2] addresses T2, human IL-17RCx4, on transfected 293T cells (human, UniProt Q8NAC3 21-791).
T2 construct: Splice variant that includes exons 7, 8 and 12
T2 sequence: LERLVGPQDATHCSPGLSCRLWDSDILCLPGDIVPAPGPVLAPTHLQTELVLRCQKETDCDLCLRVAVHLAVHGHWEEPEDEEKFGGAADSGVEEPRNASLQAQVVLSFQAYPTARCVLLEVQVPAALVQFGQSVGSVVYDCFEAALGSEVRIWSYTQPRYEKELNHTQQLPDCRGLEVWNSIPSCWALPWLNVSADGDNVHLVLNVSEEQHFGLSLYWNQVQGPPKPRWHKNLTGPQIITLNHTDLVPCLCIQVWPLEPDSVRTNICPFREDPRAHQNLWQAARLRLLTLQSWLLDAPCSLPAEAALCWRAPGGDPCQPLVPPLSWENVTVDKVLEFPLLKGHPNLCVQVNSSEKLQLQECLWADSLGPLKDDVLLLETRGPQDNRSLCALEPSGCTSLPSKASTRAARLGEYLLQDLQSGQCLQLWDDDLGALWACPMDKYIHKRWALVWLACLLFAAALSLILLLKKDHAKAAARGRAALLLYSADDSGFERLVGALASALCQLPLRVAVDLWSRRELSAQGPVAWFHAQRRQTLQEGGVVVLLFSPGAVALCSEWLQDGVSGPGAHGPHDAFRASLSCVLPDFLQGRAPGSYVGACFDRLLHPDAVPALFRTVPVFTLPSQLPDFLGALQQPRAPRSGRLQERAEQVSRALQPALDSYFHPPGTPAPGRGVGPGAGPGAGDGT
Briefly: FACS, biotinylated cytokine on transiently transfected 293T cells; (+) = significant increase in fluorescence. In general terms: A flow cytometer gives signals particle by particle.

The target in test [3] is T3, human IL-17RC (IL-17RCx1), full length on transfected cells (human, UniProt Q8NAC3 21-791).
T3 construct: Expressed on BHK, 293T or nih3t3/kz142.8 cells; also called hIL-17RC; hIL-17RCX1
T3 sequence: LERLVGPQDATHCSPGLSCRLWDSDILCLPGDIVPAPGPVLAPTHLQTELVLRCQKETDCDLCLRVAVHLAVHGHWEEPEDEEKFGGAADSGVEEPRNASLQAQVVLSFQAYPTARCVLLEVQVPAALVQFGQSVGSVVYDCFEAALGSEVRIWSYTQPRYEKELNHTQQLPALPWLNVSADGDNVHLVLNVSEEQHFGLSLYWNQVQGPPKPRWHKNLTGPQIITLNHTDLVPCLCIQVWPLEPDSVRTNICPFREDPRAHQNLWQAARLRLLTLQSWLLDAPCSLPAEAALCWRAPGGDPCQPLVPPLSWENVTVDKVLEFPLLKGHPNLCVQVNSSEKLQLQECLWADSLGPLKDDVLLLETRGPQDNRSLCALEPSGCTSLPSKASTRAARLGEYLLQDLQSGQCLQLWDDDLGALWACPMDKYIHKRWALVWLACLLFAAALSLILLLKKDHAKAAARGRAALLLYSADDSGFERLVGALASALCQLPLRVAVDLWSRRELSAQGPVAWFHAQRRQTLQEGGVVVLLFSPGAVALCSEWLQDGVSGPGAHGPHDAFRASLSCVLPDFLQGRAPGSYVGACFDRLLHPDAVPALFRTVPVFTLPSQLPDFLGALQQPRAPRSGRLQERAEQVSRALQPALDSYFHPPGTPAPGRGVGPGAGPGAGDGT
Briefly: FACS, biotinylated cytokine on transiently transfected 293T cells; (-) = no significant change in fluorescence. The text has this: (§1) Those chosen for this analysis also differed in their inclusion or exclusion of exon 7 and exon 12. These variants were designated human IL-17RCx1, IL-17RCx4, IL-17RCx2, and IL-17RCx7 and these are also illustrated in Table 6 below.

Test [4] has as its target T3, human IL-17RC (IL-17RCx1), full length …. Briefly: saturation radioligand binding on BHK hIL-17RC cells, experiment 3; high affinity site of two-site fit. The protocol: (§2) Cold competitors were added in 100 fold molar excess. […] Wells were incubated on ice for 1-hour followed by two washes with PBS (Invitrogen 20012-027) and one wash with a high salt solution (1.5M NaCL, 50 mM HEPES pH 7.4). Wells were extracted with 500 ul of 0.8M NaOH for 30 min. at room temperature and counts per minute were measured in a gamma counter (Packard Cobra II A5005).
(§3) Transfected BHK cells were plated into 24-well dishes as in one. […] Separately, 100 fold molar excess of cold ligand was added at each dilution point. Cells were washed, extracted and counted as in one. Specific counts per minute were plotted against concentration of radiolabeled ligand added by subtracting the 100 fold excess counts from the uncompleted counts at each dilution point. These normalized data were plotted to generate saturation binding curves for each combination of radiolabeled ligand and transfected BHK cells.

Test [5] has the same target. Briefly: saturation radioligand binding on BHK hIL-17RC cells, experiment 1; high affinity site of two-site fit. The method, then: as §2, §3
Test [6] addresses T1, mouse IL-17RCx1, on transfected cells. Briefly: FACS, biotinylated cytokine on transfected cells; (+) = significant increase in fluorescence.
The target in test [7] is T3, human IL-17RC (IL-17RCx1), full length …. Briefly: radioligand competition, 100x molar cold competitor, BHK hIL-17RC cells. The protocol:
as §2
(In general: Loss of bound radioactivity is the signal in a displacement assay; it reports binding, not function.)

Test [8] shares this target. Briefly: saturation radioligand binding on BHK hIL-17RC cells, experiment 2; high affinity site of two-site fit. The protocol: as §2, §3
In test [9] the target is T4, human IL-17 receptor (IL-17R), on transfected cells (human, UniProt Q96F46 33-320).
T4 sequence: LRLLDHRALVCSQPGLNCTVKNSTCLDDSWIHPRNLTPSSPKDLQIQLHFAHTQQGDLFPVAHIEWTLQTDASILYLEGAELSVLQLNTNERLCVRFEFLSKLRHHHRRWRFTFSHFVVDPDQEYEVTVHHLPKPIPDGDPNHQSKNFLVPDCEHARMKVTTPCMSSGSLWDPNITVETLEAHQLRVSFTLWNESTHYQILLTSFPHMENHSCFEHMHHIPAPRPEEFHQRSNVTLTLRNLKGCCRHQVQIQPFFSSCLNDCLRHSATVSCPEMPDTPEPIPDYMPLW
In words: cell-based or functional assay.

The target of test [10] is T3, human IL-17RC (IL-17RCx1), full length …. In words: cell-based or functional assay.
The target in test [11] is T2, human IL-17RCx4, on transfected 293T …. In words: FACS, biotinylated cytokine on transiently transfected 293T cells; (-) = no significant change in fluorescence.
Source text: as §1

B1: mouse IL-17F (ligand)
chain: RKNPKAGVPALQKAGNCPPLEDNTVRVDIRIFNQNQGISVPREFQNRSSSPWDYNITRDPHRFPSEIAEAQCRHSGCINAQGQEDSTMNSVAIQQEILVLRREPQGCSNSFRLEKMLLKVGCTCVKPIVHQAA
modifications: biotinylated in Example 31
notes: also called murine IL-17F; MuIL-17F
As for B1, the binding result in test [1] was “no binding”; in test [2] it was “binds”; in [3], “no binding”.

B2: human IL-17F (ligand)
chain: RKIPKVGHTFFQKPESCPPVPGGSMKLDIGIINENQRVSMSRNIESRSTSPWNYTVTWDPNRYPSEVVQAQCRNLGCINAQGKEDISMNSVPIQQETLVVRRKHQGCSVSFQLEKVLVTVGCTCVTPVIHHVQ
modifications: biotinylated (flow cytometry) or 125I-radiolabeled by the iodobead method (radioligand assays); unlabeled as cold competitor; expressed from cDNA in COS cells in the secretion trap
notes: also called huIL-17F; hIL-17F
In general, Kd refers to the concentration at which binding is half-saturated. In the case of B2, the Kd in [4] amounted to 0.08 nM. Also, the Kd in [5] stood at 0.05 nM. Also, the binding result in test [6] is given as “binds”. In test [7], the “fold reduction of 125I IL-17A binding” value is roughly 7 fold and the “fold reduction of 125I IL-17F binding” value was roughly 5 fold. The Kd in [8] worked out at 0.06 nM. Also, in [9], the “EC50, ap1/nfkb luciferase in hIL-17RA recombinant line” value came out at 12.4 ng/mL. Further, in test [10], the “EC50, ap1/nfkb luciferase in hIL-17RCX1 recombinant line” value was 0.61 ng/mL and the “fold more potent EC50 in the recombinant line vs the parental line” value was found to be 17 fold.

B3: mouse IL-17A (ligand)
chain: AAIIPQSSACPNTEAKDFLQNVKVNLKVFNSLGAKVSSRRPSDYLNRSTSPWTLHRNEDPDRYPSVIWEAQCRHQRCVNAEGKLDHHMNSVLIQQEILVLKREPESCPFTFRVEKMLVGVGCTCVASIVRQAA
modifications: biotinylated in Example 31
notes: also called murine IL-17A; mIL-17A
Take B3: the binding result in test [1], in [11] and in [3] was “no binding” in each case. Further, in test [10], the “EC50, ap1/nfkb luciferase in nih3t3/kz142.8/hcytor14x1 pool” value was roughly 4 ng/mL.
